Molecular target: α-Synuclein (UniProt P37840)
Assay: cross-linking

Q: “α-Synuclein (from UniProt P37840 1-140) (natural protein)” was tested. Which P intra (intra-protein character) of the DSBU cross-link Lys-21 to Lys-32 did it give?
A: 77%

Reference: paper doi:10.1101/2022.04.20.488894
